Molecular target: Recombinant Macaca fascicularis CEACAM5_ECD-His-biotin (Syngene) (Macaca fascicularis)
Test: BLI (Octet Red), biotinylated antigen captured on streptavidin biosensor, Fab as analyte 6.25-200 nM

Recombinant Macaca fascicularis CEACAM5_ECD-His-biotin (Syngene) (Macaca fascicularis), sequence (chain, as listed by the source limits assumed, form in doubt): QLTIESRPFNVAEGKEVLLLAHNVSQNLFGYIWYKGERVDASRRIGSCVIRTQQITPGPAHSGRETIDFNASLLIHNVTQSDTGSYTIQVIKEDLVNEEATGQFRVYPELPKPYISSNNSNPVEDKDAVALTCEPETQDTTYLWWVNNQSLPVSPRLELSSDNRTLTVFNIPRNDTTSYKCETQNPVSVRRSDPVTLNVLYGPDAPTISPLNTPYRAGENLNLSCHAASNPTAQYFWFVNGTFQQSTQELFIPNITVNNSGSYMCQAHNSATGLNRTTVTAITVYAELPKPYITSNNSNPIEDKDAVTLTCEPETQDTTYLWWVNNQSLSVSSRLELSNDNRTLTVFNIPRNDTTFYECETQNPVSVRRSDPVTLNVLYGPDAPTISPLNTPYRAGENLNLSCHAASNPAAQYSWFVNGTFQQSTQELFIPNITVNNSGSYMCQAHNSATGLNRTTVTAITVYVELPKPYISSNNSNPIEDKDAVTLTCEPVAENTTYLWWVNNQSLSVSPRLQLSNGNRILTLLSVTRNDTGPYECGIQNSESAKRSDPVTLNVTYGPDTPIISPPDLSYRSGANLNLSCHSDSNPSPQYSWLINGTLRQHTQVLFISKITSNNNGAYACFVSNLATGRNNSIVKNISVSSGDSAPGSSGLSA

Kd: 14.1 nM
B1: Fab of mAb1 (Fab, V domains shown)
VH: EVQLQESGPGLVKPSQTLSLTCTVSDGSVSRGGYYLTWIRQHPGKGLEWIGYIYYSGSTYFNPSLRSRVTMSVDTSKNQFSLKLSSVTAADTAVYYCARGIAVAPFDYWGQGTLVTVSS
VL: EIVLTQSPATLSVSPGERATLSCRTSQSVRSNLAWYQQKPGQAPRLLIYAASTRATGIPARFSGSGSGTEFTLTISSLQSEDFAVYYCQQYTNWPFTFGPGTKVDIK
